The record followed here is article PMC4802922, “Conserved motif VIII of murine DNA methyltransferase Dnmt3a is essential for methylation activity”.

The target in one data set is Dnmt3a-CD R200K (Mus musculus, UniProt O88508 608-908, R786K). The data set can be described thus: fluorescence polarization; Kd1; 0.1 mM AdoHcy; Fluorescence polarization: 10 nM duplex, 0.1 mM AdoHcy, Dnmt3a reaction buffer (composition not given), 25 °C; enzyme up to 600-800 nM. To be noted: protein: recombinant; tags: His6; chain copies: 2; label: 5'-FAM on strand 1 (hexamethylene linker); blunt.
Chain of Dnmt3a-CD R200K (O88508 608-908 R786K): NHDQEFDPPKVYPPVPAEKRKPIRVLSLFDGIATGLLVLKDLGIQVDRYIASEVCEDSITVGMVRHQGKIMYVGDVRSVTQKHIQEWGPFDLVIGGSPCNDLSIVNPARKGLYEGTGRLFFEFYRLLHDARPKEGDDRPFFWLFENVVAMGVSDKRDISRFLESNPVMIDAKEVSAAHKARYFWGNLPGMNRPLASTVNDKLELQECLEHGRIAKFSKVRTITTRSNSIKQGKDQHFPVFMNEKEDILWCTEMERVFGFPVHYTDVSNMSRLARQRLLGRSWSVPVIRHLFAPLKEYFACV

In the next data set the target is Dnmt3a-CD R200E (Mus musculus, UniProt O88508 608-908, R786E). The data set is described as above. To be noted: protein: recombinant; tags: His6; chain copies: 2; label: 5'-FAM on strand 1 (hexamethylene linker); blunt.
Chain of Dnmt3a-CD R200E (O88508 608-908 R786E): as the sequence (O88508 608-908 R786K) above, with K179E counted along it
Another data set deals with Dnmt3a-CD R200A (Mus musculus, UniProt O88508 608-908, R786A). The description is as above. As to conditions: protein: recombinant; tags: His6; chain copies: 2; label: 5'-FAM on strand 1 (hexamethylene linker); blunt.
Chain of Dnmt3a-CD R200A (O88508 608-908 R786A): as the sequence (O88508 608-908 R786K) above, with K179A counted along it
Another data set concerns the target Dnmt3a-CD wt (Mus musculus, UniProt O88508 608-908). The data set is described as follows: fluorescence polarization; Kd1 (first complex); 0.1 mM AdoHcy; Fluorescence polarization: 10 nM duplex, 0.1 mM AdoHcy, Dnmt3a reaction buffer (composition not given), 25 °C; enzyme up to 600-800 nM. To be noted: protein: recombinant; tags: His6 (N-terminal in Methods, C-terminal in Results); chain copies: 2; label: 5'-FAM on strand 1 (hexamethylene linker); blunt. Background: In fluorescence polarisation assays a small probe gives low polarisation when free and higher when bound to something large.

Chain of Dnmt3a-CD wt (O88508 608-908): as the sequence (O88508 608-908 R786K) above, with K179R counted along it

B1: fGCGC/CGCG (dsDNA)
DNA 1: CTGAATACTACTTGCGCTCTCTAACCTGAT
DNA 2: ATCAGGTTAGAGAGCGCAAGTAGTATTCAG
As a reminder, the Kd is the constant that tells how readily two partners part at equilibrium. Regarding B1, the Kd with Dnmt3a-CD R200K stood at 55 ± 14 nM; with Dnmt3a-CD R200E, 159 ± 37 nM; with Dnmt3a-CD R200A, 79 ± 17 nM; with Dnmt3a-CD wt, 73 ± 17 nM.
